Where a chain is given by its changes, count along the chain named.
Key:
Assay in all cases: holdup assay
Parameters in all cases: key: below the threshold = too weak to quantify, mostly under pKd 3.1 to 4
APBA1_2, Q02410 = molecular target: T1, APBA1_2, Q02410
T1 sequence (Q02410 742-832, limits assumed, looked up): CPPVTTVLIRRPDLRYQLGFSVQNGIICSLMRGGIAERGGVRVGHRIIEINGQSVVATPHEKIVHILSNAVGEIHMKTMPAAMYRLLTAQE

APBA2_2, Q99767 = molecular target: T2, APBA2_2, Q99767
T2 sequence (Q99767 654-744, limits assumed, looked up): T1 sequence (Q02410 742-832, limits assumed, looked up) with R10K, R15K, P59A, H65Q, I66A, A70S, Y84F, A89G

ARHGEF11, O15085 = molecular target: T3, ARHGEF11, O15085
T3 sequence (O15085 42-136, limits assumed, looked up): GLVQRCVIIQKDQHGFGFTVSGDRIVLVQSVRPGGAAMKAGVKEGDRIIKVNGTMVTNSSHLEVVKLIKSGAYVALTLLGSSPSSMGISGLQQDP

DLG4_1, P78352 = molecular target: DLG4_1, P78352
DLG4_1, P78352, sequence (P78352 62-152): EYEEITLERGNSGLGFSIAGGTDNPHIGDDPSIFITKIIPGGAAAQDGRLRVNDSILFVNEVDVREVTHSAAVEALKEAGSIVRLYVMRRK

DLG4_2, P78352 = molecular target: DLG4_2, P78352
DLG4_2, P78352, sequence (P78352 155-259): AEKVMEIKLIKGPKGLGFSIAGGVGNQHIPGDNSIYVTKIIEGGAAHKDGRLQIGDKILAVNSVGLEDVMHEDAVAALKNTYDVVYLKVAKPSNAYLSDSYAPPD

GIPC2, Q8TF65 = molecular target: GIPC2, Q8TF65
GIPC2, Q8TF65, sequence (Q8TF65 112-203): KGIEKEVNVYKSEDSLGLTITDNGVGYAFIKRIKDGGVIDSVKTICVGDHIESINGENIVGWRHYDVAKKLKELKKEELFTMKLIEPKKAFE

GRIP1_2, Q9Y3R0 = molecular target: T4, GRIP1_2, Q9Y3R0
T4 sequence (Q9Y3R0 145-248, limits assumed, looked up): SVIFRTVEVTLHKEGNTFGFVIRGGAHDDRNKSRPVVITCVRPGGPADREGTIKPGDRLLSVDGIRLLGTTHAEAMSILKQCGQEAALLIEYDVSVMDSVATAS

GRIP2_4, Q9C0E4 = molecular target: GRIP2_4, Q9C0E4
GRIP2_4, Q9C0E4, sequence (Q9C0E4 446-548): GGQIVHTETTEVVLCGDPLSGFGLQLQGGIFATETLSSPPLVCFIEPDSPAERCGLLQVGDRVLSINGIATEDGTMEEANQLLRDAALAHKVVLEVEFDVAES

IL16_4, Q14005 = molecular target: IL16_4, Q14005
IL16_4, Q14005, sequence (Q14005 1229-1329): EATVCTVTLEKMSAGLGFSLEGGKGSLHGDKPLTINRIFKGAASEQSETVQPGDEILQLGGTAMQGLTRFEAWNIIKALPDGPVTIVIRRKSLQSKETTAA

Inadl_2, Q8NI35 = molecular target: Inadl_2, Q8NI35
Inadl_2, Q8NI35, sequence (Q8NI35 238-335): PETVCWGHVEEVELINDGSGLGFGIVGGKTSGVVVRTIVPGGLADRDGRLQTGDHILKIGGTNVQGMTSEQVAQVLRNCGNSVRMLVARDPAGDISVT

Inadl_4, Q8NI35 = molecular target: Inadl_4, Q8NI35
Inadl_4, Q8NI35, sequence (Q8NI35 547-651): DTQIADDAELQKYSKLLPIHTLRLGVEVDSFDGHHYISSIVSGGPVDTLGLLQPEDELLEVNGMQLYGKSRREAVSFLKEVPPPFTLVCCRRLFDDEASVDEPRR

Inadl_8, Q8NI35 = molecular target: Inadl_8, Q8NI35
Inadl_8, Q8NI35, sequence (Q8NI35 1425-1530): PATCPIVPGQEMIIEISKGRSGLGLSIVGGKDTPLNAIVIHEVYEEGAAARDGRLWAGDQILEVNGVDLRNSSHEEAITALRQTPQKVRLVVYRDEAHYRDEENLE

LIN7A, O14910 = molecular target: T5, LIN7A, O14910
T5 sequence (O14910 103-200, limits assumed, looked up): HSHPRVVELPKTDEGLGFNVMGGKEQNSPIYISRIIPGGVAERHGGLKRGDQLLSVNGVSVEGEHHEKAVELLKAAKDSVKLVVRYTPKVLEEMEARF

LNX2_2, Q8N448 = molecular target: T6, LNX2_2, Q8N448
T6 sequence (Q8N448 334-432, limits assumed, looked up): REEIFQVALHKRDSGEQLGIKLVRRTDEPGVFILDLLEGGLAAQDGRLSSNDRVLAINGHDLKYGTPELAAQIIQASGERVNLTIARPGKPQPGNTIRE

MAGI1_1, Q96QZ7 = molecular target: MAGI1_1, Q96QZ7
MAGI1_1, Q96QZ7, sequence (Q96QZ7 1-106): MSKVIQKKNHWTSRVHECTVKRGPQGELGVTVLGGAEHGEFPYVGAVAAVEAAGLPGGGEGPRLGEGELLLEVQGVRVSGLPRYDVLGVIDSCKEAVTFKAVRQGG

MPP7, Q5T2T1 = molecular target: T7, MPP7, Q5T2T1
T7 sequence (Q5T2T1 134-230, limits assumed, looked up): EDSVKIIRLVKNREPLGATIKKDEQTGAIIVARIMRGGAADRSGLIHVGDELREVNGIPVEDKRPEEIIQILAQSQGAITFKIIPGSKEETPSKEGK

NHERF3_3, Q5T2W1 = molecular target: T8, NHERF3_3, Q5T2W1
T8 sequence (Q5T2W1 238-333, limits assumed, looked up): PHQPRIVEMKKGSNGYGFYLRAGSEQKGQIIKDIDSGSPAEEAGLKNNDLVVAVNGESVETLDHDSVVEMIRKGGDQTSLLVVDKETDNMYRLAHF

NOS1, P29475 = molecular target: NOS1, P29475
NOS1, P29475, sequence (P29475 9-101): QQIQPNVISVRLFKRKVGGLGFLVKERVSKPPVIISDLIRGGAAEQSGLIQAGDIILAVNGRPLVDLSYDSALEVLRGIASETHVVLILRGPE

PARD3_3, Q8TEW0 = molecular target: PARD3_3, Q8TEW0
PARD3_3, Q8TEW0, sequence (Q8TEW0 582-685): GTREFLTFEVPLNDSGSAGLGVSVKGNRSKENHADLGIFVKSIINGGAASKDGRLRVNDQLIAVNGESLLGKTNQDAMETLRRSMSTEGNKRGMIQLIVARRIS

PDZRN4_1, Q6ZMN7 = molecular target: PDZRN4_1, Q6ZMN7
PDZRN4_1, Q6ZMN7, sequence (Q6ZMN7 213-318): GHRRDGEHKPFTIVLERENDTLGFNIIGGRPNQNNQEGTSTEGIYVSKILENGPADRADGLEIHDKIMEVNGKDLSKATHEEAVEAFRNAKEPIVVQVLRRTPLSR

PICK1, Q9NRD5 = molecular target: PICK1, Q9NRD5
PICK1, Q9NRD5, sequence (Q9NRD5 17-115): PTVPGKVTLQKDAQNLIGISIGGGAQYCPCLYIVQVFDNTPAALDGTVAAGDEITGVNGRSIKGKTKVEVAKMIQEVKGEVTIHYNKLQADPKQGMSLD

PTPN13_1, Q12923 = molecular target: T9, PTPN13_1, Q12923
T9 sequence (Q12923 1088-1188, limits assumed, looked up): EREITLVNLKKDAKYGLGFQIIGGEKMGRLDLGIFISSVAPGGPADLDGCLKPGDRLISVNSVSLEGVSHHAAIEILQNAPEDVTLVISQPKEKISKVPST

SNTA1, Q13424 = molecular target: T10, SNTA1, Q13424
T10 sequence (Q13424 82-180, limits assumed, looked up): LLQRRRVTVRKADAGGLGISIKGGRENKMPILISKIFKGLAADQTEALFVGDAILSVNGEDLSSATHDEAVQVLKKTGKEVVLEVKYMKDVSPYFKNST

SNTG1, Q9NSN8 = molecular target: T11, SNTG1, Q9NSN8
T11 sequence (Q9NSN8 52-150, limits assumed, looked up): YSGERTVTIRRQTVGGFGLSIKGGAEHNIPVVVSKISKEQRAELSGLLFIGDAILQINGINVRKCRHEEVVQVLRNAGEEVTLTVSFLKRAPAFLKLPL

SNX27, Q96L92 = molecular target: SNX27, Q96L92
SYNJ2BP, P57105 = molecular target: T12, SYNJ2BP, P57105
T12 sequence (P57105 8-110, limits assumed, looked up): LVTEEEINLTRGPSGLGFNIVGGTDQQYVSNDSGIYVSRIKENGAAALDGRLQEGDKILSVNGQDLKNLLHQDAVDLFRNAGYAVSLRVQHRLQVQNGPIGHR

[1] = plain residues with an end cap or a label only (N-terminal biotin on a linker: gsgsgs; C-terminal amide)
[2] = plain residues with an end cap or a label only (N-terminal biotin on a linker: ttds)

YGIVQETTFDLGGDIH [MLLT4_int, P55196]
pKd (APBA1_2, Q02410; [1]): below the threshold | pKd (APBA2_2, Q99767; [1]): below the threshold | pKd (ARHGEF11, O15085; [1]): below the threshold | pKd (DLG4_1, P78352; [1]): below the threshold | pKd (DLG4_2, P78352; [1]): below the threshold | pKd (GIPC2, Q8TF65; [1]): below the threshold | pKd (GRIP1_2, Q9Y3R0; [1]): below the threshold | pKd (GRIP2_4, Q9C0E4; [1]): below the threshold | pKd (IL16_4, Q14005; [1]): below the threshold | pKd (Inadl_2, Q8NI35; [1]): below the threshold | pKd (Inadl_4, Q8NI35; [1]): below the threshold | pKd (Inadl_8, Q8NI35; [1]): below the threshold | pKd (LIN7A, O14910; [1]): below the threshold | pKd (LNX2_2, Q8N448; [1]): below the threshold | pKd (MAGI1_1, Q96QZ7; [1]): below the threshold | pKd (MPP7, Q5T2T1; [1]): below the threshold | pKd (NHERF3_3, Q5T2W1; [1]): below the threshold | pKd (NOS1, P29475; [1]): below the threshold | pKd (PARD3_3, Q8TEW0; [1]): below the threshold | pKd (PDZRN4_1, Q6ZMN7; [1]): below the threshold | pKd (PICK1, Q9NRD5; [1]): below the threshold | pKd (PTPN13_1, Q12923; [1]): below the threshold | pKd (SNTA1, Q13424; [1]): below the threshold | pKd (SNTG1, Q9NSN8; [1]): below the threshold | pKd (SNX27, Q96L92; [1]): 4.59 | pKd (SYNJ2BP, P57105; [1]): below the threshold

SGSRPSATVV [HPV73-E6, Q82005]
pKd (APBA1_2, Q02410; [2]): 4.02 | pKd (APBA2_2, Q99767; [2]): below the threshold | pKd (ARHGEF11, O15085; [2]): 3.98 | pKd (DLG4_1, P78352; [2]): 3.97 | pKd (DLG4_2, P78352; [2]): 4.14 | pKd (GIPC2, Q8TF65; [2]): 3.62 | pKd (GRIP1_2, Q9Y3R0; [2]): below the threshold | pKd (GRIP2_4, Q9C0E4; [2]): 3.55 | pKd (IL16_4, Q14005; [2]): below the threshold | pKd (Inadl_2, Q8NI35; [2]): below the threshold | pKd (Inadl_4, Q8NI35; [2]): below the threshold | pKd (Inadl_8, Q8NI35; [2]): 3.53 | pKd (LIN7A, O14910; [2]): below the threshold | pKd (LNX2_2, Q8N448; [2]): 4.98 | pKd (MAGI1_1, Q96QZ7; [2]): below the threshold | pKd (MPP7, Q5T2T1; [2]): below the threshold | pKd (NHERF3_3, Q5T2W1; [2]): below the threshold | pKd (NOS1, P29475; [2]): 3.8 | pKd (PARD3_3, Q8TEW0; [2]): 3.76 | pKd (PDZRN4_1, Q6ZMN7; [2]): below the threshold | pKd (PICK1, Q9NRD5; [2]): 3.63 | pKd (PTPN13_1, Q12923; [2]): 3.61 | pKd (SNTA1, Q13424; [2]): 3.54 | pKd (SNTG1, Q9NSN8; [2]): 3.6 | pKd (SNX27, Q96L92; [2]): below the threshold | pKd (SYNJ2BP, P57105; [2]): 3.71

VDFPPKESSL [ACVR2A, P27037]
pKd (APBA1_2, Q02410; [2]): 3.33 | pKd (APBA2_2, Q99767; [2]): below the threshold | pKd (ARHGEF11, O15085; [2]): 4.17 | pKd (DLG4_1, P78352; [2]): below the threshold | pKd (DLG4_2, P78352; [2]): 3.33 | pKd (GIPC2, Q8TF65; [2]): below the threshold | pKd (GRIP1_2, Q9Y3R0; [2]): below the threshold | pKd (GRIP2_4, Q9C0E4; [2]): below the threshold | pKd (IL16_4, Q14005; [2]): below the threshold | pKd (Inadl_2, Q8NI35; [2]): below the threshold | pKd (Inadl_4, Q8NI35; [2]): below the threshold | pKd (Inadl_8, Q8NI35; [2]): below the threshold | pKd (LIN7A, O14910; [2]): 3.24 | pKd (LNX2_2, Q8N448; [2]): below the threshold | pKd (MAGI1_1, Q96QZ7; [2]): below the threshold | pKd (MPP7, Q5T2T1; [2]): below the threshold | pKd (NHERF3_3, Q5T2W1; [2]): below the threshold | pKd (NOS1, P29475; [2]): below the threshold | pKd (PARD3_3, Q8TEW0; [2]): below the threshold | pKd (PDZRN4_1, Q6ZMN7; [2]): 4.7 | pKd (PICK1, Q9NRD5; [2]): below the threshold | pKd (PTPN13_1, Q12923; [2]): below the threshold | pKd (SNTA1, Q13424; [2]): 4.28 | pKd (SNTG1, Q9NSN8; [2]): 3.65 | pKd (SNX27, Q96L92; [2]): 4.38 | pKd (SYNJ2BP, P57105; [2]): 4.53

Source: PMC9482650, “Quantitative fragmentomics allow affinity mapping of interactomes” (Nature Communications, 2022)
